# Paper PMC3089468 (Nucleic Acids Research, 2011)
# Legend:
# Assay in all cases: two-hybrid
# [1] = target: λCI_Arnt362 C308R (human, UniProt P27540 1-362, C308R)
# [2] = target: λCI_Arnt362 L221H (human, UniProt P27540 1-362, L221H)
# [3] = target: λCI_Arnt362 M267K (human, UniProt P27540 1-362, M267K)
# [4] = target: λCI_Arnt362 V306D (human, UniProt P27540 1-362, V306D)
# [5] = target: λCI_Arnt362 A339D (human, UniProt P27540 1-362, A339D)
# [6] = target: λCI_Arnt362 G341D (human, UniProt P27540 1-362, G341D)
# [7] = target: λCI_Arnt362 C265R (human, UniProt P27540 1-362, C265R)
# Sequence of λCI_Arnt362 C265R (P27540 1-362 C265R): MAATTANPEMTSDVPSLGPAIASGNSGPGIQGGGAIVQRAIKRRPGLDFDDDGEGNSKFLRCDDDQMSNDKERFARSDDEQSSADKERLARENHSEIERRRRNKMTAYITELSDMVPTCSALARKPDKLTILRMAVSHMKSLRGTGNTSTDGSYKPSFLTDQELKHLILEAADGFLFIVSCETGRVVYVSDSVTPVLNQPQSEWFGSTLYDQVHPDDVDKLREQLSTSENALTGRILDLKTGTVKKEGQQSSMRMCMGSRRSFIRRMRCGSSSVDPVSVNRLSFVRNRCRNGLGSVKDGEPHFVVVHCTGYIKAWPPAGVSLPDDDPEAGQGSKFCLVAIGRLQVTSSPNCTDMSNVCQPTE
# Sequence of λCI_Arnt362 L221H (P27540 1-362 L221H): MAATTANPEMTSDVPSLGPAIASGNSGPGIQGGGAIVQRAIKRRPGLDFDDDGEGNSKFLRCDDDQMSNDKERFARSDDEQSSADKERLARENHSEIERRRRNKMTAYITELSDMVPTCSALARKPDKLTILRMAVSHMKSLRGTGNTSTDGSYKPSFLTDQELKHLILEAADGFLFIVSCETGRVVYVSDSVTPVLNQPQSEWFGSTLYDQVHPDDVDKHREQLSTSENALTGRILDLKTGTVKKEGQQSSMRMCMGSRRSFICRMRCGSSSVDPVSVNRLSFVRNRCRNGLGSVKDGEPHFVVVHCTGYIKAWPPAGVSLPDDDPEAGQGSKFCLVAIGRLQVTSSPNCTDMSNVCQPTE
# Sequence of λCI_Arnt362 A339D (P27540 1-362 A339D): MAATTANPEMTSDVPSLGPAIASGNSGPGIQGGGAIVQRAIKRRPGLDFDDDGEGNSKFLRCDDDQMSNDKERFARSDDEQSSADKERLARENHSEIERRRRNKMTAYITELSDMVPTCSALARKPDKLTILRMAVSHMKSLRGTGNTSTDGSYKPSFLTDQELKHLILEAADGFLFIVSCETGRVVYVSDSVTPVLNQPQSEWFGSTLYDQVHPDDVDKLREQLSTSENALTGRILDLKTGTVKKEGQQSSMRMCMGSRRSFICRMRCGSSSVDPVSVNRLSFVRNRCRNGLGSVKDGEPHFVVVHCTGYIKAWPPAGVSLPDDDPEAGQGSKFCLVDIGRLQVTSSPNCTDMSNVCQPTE
# Sequence of λCI_Arnt362 V306D (P27540 1-362 V306D): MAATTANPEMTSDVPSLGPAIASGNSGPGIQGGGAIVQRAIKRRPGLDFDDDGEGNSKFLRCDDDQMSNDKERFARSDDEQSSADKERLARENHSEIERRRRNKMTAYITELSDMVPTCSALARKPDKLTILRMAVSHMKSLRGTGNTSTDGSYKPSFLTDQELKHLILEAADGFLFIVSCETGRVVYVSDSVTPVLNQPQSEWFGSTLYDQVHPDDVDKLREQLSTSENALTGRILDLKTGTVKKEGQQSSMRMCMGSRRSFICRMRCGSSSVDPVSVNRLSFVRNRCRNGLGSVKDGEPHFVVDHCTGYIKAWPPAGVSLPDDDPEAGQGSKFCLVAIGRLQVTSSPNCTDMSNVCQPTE
# Sequence of λCI_Arnt362 M267K (P27540 1-362 M267K): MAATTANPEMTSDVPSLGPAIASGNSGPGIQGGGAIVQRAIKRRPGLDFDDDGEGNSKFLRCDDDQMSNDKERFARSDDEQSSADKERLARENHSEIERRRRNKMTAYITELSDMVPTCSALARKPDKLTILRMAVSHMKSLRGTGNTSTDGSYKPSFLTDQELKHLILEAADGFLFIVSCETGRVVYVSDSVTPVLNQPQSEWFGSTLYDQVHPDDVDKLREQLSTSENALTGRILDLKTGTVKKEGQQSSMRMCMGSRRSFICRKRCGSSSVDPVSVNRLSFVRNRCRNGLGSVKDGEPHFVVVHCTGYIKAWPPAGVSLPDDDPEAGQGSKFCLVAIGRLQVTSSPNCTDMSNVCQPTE
# Sequence of λCI_Arnt362 C308R (P27540 1-362 C308R): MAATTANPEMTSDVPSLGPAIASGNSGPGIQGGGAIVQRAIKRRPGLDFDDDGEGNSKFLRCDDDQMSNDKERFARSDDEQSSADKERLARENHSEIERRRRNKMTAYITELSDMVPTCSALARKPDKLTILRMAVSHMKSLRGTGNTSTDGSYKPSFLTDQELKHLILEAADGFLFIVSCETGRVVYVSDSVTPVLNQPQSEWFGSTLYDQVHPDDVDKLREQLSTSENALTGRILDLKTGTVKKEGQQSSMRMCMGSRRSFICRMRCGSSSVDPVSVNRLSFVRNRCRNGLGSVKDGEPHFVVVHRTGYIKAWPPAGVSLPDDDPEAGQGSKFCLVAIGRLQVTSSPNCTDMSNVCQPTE
# Sequence of λCI_Arnt362 G341D (P27540 1-362 G341D): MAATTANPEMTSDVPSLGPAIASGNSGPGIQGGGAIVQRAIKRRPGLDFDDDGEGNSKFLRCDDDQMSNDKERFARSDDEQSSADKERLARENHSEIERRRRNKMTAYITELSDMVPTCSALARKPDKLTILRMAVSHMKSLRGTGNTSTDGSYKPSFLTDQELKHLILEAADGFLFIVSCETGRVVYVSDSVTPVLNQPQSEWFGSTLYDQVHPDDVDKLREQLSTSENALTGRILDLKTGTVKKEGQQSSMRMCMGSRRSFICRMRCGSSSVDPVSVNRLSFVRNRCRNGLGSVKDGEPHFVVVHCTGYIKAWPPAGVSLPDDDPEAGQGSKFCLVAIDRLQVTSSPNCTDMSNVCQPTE
binder,measurement,setting,value
"RNAPα_AhR278 (domain or fragment, mouse, UniProt P30561 1-278, looked up) MSSGANITYASRKRRKPVQKTVKPIPAEGIKSNPSKRHRDRLNTELDRLASLLPFPQDVINKLDKLSVLRLSVSYLRAKSFFDVALKSTPADRNGGQDQCRAQIRDWQDLQEGEFLLQALNGFVLVVTADALVFYASSTIQDYLGFQQSDVIHQSVYELIHTEDRAEFQRQLHWALNPDSAQGVDEAHGPPQAAVYYTPDQLPPENASFMERCFRCRLRCLLDNSSGFLAMNFQGRLKYLHGQNKKGKDGALLPPQLALFAIATPLQPPSILEIRTKN",β-gal activity relative to wt,[1],< 60 % of wt β-gal activity
same,β-gal activity relative to wt,[2],< 60 % of wt β-gal activity
same,β-gal activity relative to wt,[3],< 60 % of wt β-gal activity
same,β-gal activity relative to wt,[4],< 60 % of wt β-gal activity
same,β-gal activity relative to wt,[5],< 60 % of wt β-gal activity
same,β-gal activity relative to wt,[6],47 % of wt activity
same,β-gal activity relative to wt,[7],< 60 % of wt β-gal activity
